Measurements as given in US20230257470A1 (published 2023).
Positions count from the first letter of the chain named. Each block holds one binder with its values, some of them ahead of it.

Key:
[1] = target: T1, human FcγRIIIa type V (human, UniProt P08637 17-208, limits assumed); assay: SPR (Biacore), FcγR over captured antibody; binding amount divided by that of IL6R-BF648/IL6R-L x 100
T1 construct: also called FcgRIIIaV; FcγRIIIa(V)
T1 sequence (P08637 other isoform, or with tags, fused parts or gaps limits assumed): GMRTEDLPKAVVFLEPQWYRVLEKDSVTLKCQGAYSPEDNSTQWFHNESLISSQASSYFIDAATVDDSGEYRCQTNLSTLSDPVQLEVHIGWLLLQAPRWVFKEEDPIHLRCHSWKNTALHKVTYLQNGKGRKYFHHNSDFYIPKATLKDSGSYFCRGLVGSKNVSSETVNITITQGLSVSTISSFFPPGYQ
Description: (§1) According to the following method, relative binding activities were calculated for the results of analyzing interactions with the respective FcγRs.

[2] = target: T2, human FcγRIa (human, UniProt P12314 16-292, limits assumed); assay: as above
T2 construct: also called FcgRIa; FcγRI (CD64)
T2 sequence (P12314 16-292 limits assumed): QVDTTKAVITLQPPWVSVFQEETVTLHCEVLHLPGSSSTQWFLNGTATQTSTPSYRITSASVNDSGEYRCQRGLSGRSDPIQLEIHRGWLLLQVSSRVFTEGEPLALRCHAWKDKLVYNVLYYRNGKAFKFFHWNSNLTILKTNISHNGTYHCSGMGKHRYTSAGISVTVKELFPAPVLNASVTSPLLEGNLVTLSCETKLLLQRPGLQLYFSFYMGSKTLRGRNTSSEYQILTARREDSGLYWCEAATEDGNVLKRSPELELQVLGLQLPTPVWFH
Description: as §1

[3] = target: T3, human FcγRIIa type R (human, UniProt P12318 36-217); assay: as above
T3 construct: also called FcgRIIaR; FcγRIIa(R)
T3 chain: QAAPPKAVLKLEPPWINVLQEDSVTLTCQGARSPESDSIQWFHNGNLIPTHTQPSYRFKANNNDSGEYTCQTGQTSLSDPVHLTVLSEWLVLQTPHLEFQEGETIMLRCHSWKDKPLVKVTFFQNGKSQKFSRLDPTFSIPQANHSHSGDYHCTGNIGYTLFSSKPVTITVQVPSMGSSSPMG
Description: as §1

[4] = target: T4, human FcγRIIa type H (human, UniProt P12318 36-217); assay: as above
T4 construct: also called FcgRIIaH; FcγRIIa(H)
T4 sequence: T3 chain with R133H
Description: as §1

[5] = target: T5, human FcγRIIb (human, UniProt P31994 43-217, limits assumed); assay: as above
T5 construct: also called FcgRIIb; FcγIIB
T5 sequence: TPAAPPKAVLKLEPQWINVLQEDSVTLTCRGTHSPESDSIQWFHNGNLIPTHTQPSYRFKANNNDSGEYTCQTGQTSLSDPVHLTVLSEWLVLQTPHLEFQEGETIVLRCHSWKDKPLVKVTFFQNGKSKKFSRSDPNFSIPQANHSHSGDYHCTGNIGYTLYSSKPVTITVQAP
Description: as §1

[6] = target: T6, human FcγRIIa type H (human, UniProt P12318 36-217); assay: SPR (Biacore), FcγR over captured antibody; binding amount relative to IL6R-BF648/IL6R-L x100
T6 construct: also called FcyRIIaH; FcγRIIa(H)
T6 sequence: T3 chain with R133H

[7] = target: T7, human FcγRIIIa type V (human, UniProt P08637 17-208, limits assumed); assay: as above
T7 construct: also called FcyRIIIa; FcγRIIIaV
T7 sequence (P08637 other isoform, or with tags, fused parts or gaps limits assumed): as the sequence (P08637 other isoform, or with tags, fused parts or gaps limits assumed) above

[8] = target: T8, human FcγRIa (human, UniProt P12314 16-292, limits assumed); assay: as above
T8 construct: also called FcyRIa; CD64
T8 sequence (P12314 16-292 limits assumed): as the sequence (P12314 16-292 limits assumed) above

B2: IL6R-BP078/IL6R-L (antibody, human IgG1, name in EU numbering)
heavy: QVQLQESGPGLVKPSETLSLTCAVSGHSISHDHAWSWVRQPPGEGLEWIGFISYSGITNYNPSLQGRVTISRDNSKNTLYLQMNSLRAEDTAVYYCARSLARTTAMDYWGEGTLVTVSSASTKGPSVFPLAPSSKSTSGGTAALGCLVKDYFPEPVTVSWNSGALTSGVHTFPAVLQSSGLYSLSSVVTVPSSSLGTQTYICNVNHKPSNTKVDKKVEPKSCDKTHTCPPCPAPELLGGDSVFLFPPKPKDTLMISRTPEVTCVVVDVSHEDPEVKFNWYVDGVEVHNAKTKPREEQYNSTYRVVSVLTVLHQDWLNGKEYKCKVSNKALPMPIEKTISKAKGQPREPQVYTLPPSRDELTKNQVSLTCLVKGFYPSDIAVEWESNGQPENNYKTTPPVLDSDGSFFLYSKLTVDKSRWQQGNVFSCSVMHEALHNHYTQESLSLSP
light: DIQMTQSPSSLSASVGDRVTITCRASQDISSYLNWYQQKPGKAPKLLIYYTSRLHSGVPSRFSGSGSGTDFTFTISSLQPEDIATYYCQQGNTLPYTFGQGTKVEIK
relative binding [6]: 89 % of IL6R-BF648/IL6R-L
relative binding [7]: 91 % of IL6R-BF648/IL6R-L
relative binding [8]: 106 % of IL6R-BF648/IL6R-L

B3: IL6R-BP133/IL6R-L (antibody, human IgG1, name in EU numbering)
heavy: B2 heavy with E235D, L236Y, M332K
light: B2 light
notes: copies: 2 + 2
relative binding activity [1]: 114 relative (IL6R-BF648/IL6R-L = 100)
relative binding activity [2]: 41 relative (IL6R-BF648/IL6R-L = 100)
relative binding activity [3]: 174 relative (IL6R-BF648/IL6R-L = 100)
relative binding activity [4]: 151 relative (IL6R-BF648/IL6R-L = 100)
relative binding activity [5]: 137 relative (IL6R-BF648/IL6R-L = 100)

B4: IL6R-BP144/IL6R-L (antibody, human IgG1, name in EU numbering)
heavy: B2 heavy with G239D, K328A, M332A
light: B2 light
notes: copies: 2 + 2
relative binding activity [1]: 128 relative (IL6R-BF648/IL6R-L = 100)
relative binding activity [2]: 64 relative (IL6R-BF648/IL6R-L = 100)
relative binding activity [3]: 204 relative (IL6R-BF648/IL6R-L = 100)
relative binding activity [4]: 108 relative (IL6R-BF648/IL6R-L = 100)
relative binding activity [5]: 121 relative (IL6R-BF648/IL6R-L = 100)

B5: IL6R-BP145/IL6R-L (antibody, human IgG1, name in EU numbering)
heavy: B2 heavy with L236Y, G239D, M332A
light: B2 light
notes: copies: 2 + 2
relative binding activity [1]: 153 relative (IL6R-BF648/IL6R-L = 100)
relative binding activity [2]: 41 relative (IL6R-BF648/IL6R-L = 100)
relative binding activity [3]: 350 relative (IL6R-BF648/IL6R-L = 100)
relative binding activity [4]: 224 relative (IL6R-BF648/IL6R-L = 100)
relative binding activity [5]: 152 relative (IL6R-BF648/IL6R-L = 100)

B6: IL6R-BP143/IL6R-L (antibody, human IgG1, name in EU numbering)
heavy: B2 heavy with L236Y, K328A, M332A
light: B2 light
notes: copies: 2 + 2
relative binding activity [1]: 114 relative (IL6R-BF648/IL6R-L = 100)
relative binding activity [2]: 86 relative (IL6R-BF648/IL6R-L = 100)
relative binding activity [3]: 238 relative (IL6R-BF648/IL6R-L = 100)
relative binding activity [4]: 143 relative (IL6R-BF648/IL6R-L = 100)
relative binding activity [5]: 133 relative (IL6R-BF648/IL6R-L = 100)

B8: IL6R-BP149/IL6R-L (antibody, human IgG1, name in EU numbering)
heavy: B2 heavy with E235D, L236Y, G239D, Y298D, K328A, M332K
light: B2 light
notes: the list runs over r32 and r33; copies: 2 + 2
relative binding activity [1]: 186 relative (IL6R-BF648/IL6R-L = 100)
relative binding activity [2]: 29 relative (IL6R-BF648/IL6R-L = 100)
relative binding activity [3]: 539 relative (IL6R-BF648/IL6R-L = 100)
relative binding activity [4]: 401 relative (IL6R-BF648/IL6R-L = 100)
relative binding activity [5]: 173 relative (IL6R-BF648/IL6R-L = 100)

B9: IL6R-BP150/IL6R-L (antibody, human IgG1, name in EU numbering)
heavy: B2 heavy with L236Y, G239D, K328A, M332R
light: B2 light
notes: the list runs over r34 and r35; copies: 2 + 2
relative binding activity [1]: 204 relative (IL6R-BF648/IL6R-L = 100)
relative binding activity [2]: 30 relative (IL6R-BF648/IL6R-L = 100)
relative binding activity [3]: 757 relative (IL6R-BF648/IL6R-L = 100)
relative binding activity [4]: 770 relative (IL6R-BF648/IL6R-L = 100)
relative binding activity [5]: 183 relative (IL6R-BF648/IL6R-L = 100)

More lines, now with the values ahead:

relative binding activity [1]: 113 relative (IL6R-BF648/IL6R-L = 100)
relative binding activity [2]: 83 relative (IL6R-BF648/IL6R-L = 100)
relative binding activity [3]: 423 relative (IL6R-BF648/IL6R-L = 100)
relative binding activity [4]: 191 relative (IL6R-BF648/IL6R-L = 100)
relative binding activity [5]: 164 relative (IL6R-BF648/IL6R-L = 100)
B1: IL6R-BP183/IL6R-L (antibody, human IgG1, name in EU numbering)
heavy: B2 heavy with E235D, L236Y, P273G, K328A, M332K
light: B2 light
notes: the list runs over r52 and r53; copies: 2 + 2

relative binding activity [1]: 125 relative (IL6R-BF648/IL6R-L = 100)
relative binding activity [2]: 39 relative (IL6R-BF648/IL6R-L = 100)
relative binding activity [3]: 570 relative (IL6R-BF648/IL6R-L = 100)
relative binding activity [4]: 226 relative (IL6R-BF648/IL6R-L = 100)
relative binding activity [5]: 177 relative (IL6R-BF648/IL6R-L = 100)
B7: IL6R-BP179/IL6R-L (antibody, human IgG1, name in EU numbering)
heavy: B2 heavy with G239D, P273G, K328A, M332K
light: B2 light
notes: the list runs over r45 and r46; copies: 2 + 2

relative binding [6]: 93 % of IL6R-BF648/IL6R-L
relative binding [7]: 97 % of IL6R-BF648/IL6R-L
relative binding [8]: 60 % of IL6R-BF648/IL6R-L
B10: IL6R-BP912/IL6R-L (antibody, human IgG1, name in EU numbering)
heavy: B2 heavy with M332R
light: B2 light
